According to article PMC8828050, “Covalent inhibition of endoplasmic reticulum chaperone GRP78 disconnects the transduction of ER stress signals to inflammation and lipid accumulation in diet-induced obese mice” (eLife, 2022):

Experiments:
[1] = molecular target: T1, Recombinant 6xHis-tagged human GRP78 protein, biotinylated, saturated with 10 μM celastrol (human, UniProt P11021 19-654, biotin (EZ-Link Sulfo-NHS-Biotin); celastrol covalently bound to Cys41 (mapped on recombinant mouse GRP78)); assay: SPR; as a1, but the GRP78 chip was saturated with 10 μM celastrol before the peptide; peptide 1.56 to 100 μM; steady-state analysis, 1:1 model; n = 4; conditions: both partners purified
T1 construct: 78 kDa glucose-regulated protein (GRP78), human, recombinant from Abcam; Same protein as m2, after saturation with celastrol; The covalent site Cys41 was mapped by LC-MS/MS on mouse GRP78 made in E. coli, not on the human protein on the chip; also called celastrol–GRP78 conjugate; GRP78-coated Sensor Chip saturated by celastrol; source: bought: Abcam; saturated on the chip with 10 μM celastrol
T1 sequence (P11021 19-654): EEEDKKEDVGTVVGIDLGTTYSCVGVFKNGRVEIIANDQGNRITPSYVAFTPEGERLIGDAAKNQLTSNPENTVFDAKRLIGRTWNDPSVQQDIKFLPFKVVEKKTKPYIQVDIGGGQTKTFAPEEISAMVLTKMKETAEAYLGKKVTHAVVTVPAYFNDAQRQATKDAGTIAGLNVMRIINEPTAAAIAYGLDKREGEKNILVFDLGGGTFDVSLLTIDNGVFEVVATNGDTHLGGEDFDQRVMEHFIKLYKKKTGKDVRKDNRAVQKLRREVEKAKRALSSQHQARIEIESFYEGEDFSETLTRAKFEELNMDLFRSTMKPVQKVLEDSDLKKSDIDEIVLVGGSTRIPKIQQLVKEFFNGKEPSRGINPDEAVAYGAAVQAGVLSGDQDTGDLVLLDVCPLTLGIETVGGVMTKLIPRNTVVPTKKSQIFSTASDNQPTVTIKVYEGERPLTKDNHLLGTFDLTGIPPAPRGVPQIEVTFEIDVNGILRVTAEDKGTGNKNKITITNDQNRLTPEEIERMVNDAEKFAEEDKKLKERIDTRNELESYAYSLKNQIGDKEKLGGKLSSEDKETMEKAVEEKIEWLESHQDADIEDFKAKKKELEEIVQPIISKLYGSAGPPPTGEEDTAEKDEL

[2] = molecular target: T2, Recombinant 6xHis-tagged human GRP78 protein, biotinylated (human, UniProt P11021 19-654, biotin (EZ-Link Sulfo-NHS-Biotin)); assay: SPR; biotinylated GRP78 captured on streptavidin Sensor Chip SA; peptide 2.5 nM to 320 μM flowed at 30 μl/min, 25°C; 10 mM HEPES, 150 mM NaCl, 3 mM EDTA, 0.005% Tween-20, pH 7.4; steady-state analysis, 1:1 model; Biacore X100; average of four runs; conditions: both partners purified
T2 construct: 78 kDa glucose-regulated protein (GRP78), human, recombinant from Abcam; Captured on the streptavidin chip through the biotin; No Abcam catalogue number is printed; also called 78 kDa glucose-regulated protein; biotinylated GRP78; source: bought: Abcam
T2 sequence (P11021 19-654): as above

B1: synthetic GRP78-targeting peptide WDLAWMFRLPVG (peptide)
peptide: WDLAWMFRLPVG
notes: synthetic GRP78-targeting peptide, as described in Arap et al., 2004; That it is not a natural stretch is surmised; also called synthetic peptide; source: synthetic peptide (GL Biochem Ltd, Shanghai)
[1]
  Kd: 2230 nM
[2]
  Kd: 17.7 nM
